{"source": "paper PMC8282039", "molecular_target": "CDY14HL-Fc4 (human) (UniProt Q9BYF1)", "experiment": "SPR", "data": [{"substance": "SARS-CoV-2 receptor binding domain (RBD), Wuhan (from UniProt P0DTC2 330-530) (domain or fragment)", "values": [{"measurement": "Kd", "value": 0.031, "unit": "nM"}]}]}
